Values of other authors in paper PMC6934062.

Target: TDP-43 NTD (Homo sapiens) (UniProt Q13148)

Kd: 70 µM
Substance: TDP-43 NTD (from UniProt Q13148)
